Measured values from publication PMC10980815, “Cell surface patching via CXCR4-targeted nanothreads for cancer metastasis inhibition” (Nature Communications, 2024).
Ends that are not written are not given here. HPMA copolymer = HPMA copolymer made by RAFT copolymerization of HPMA with N-(3-aminopropyl)methacrylamide (APMA), bearing maleimide groups for grafting

Experiment: Pharmacokinetics at each cycle of a four-round treatment regimen
Format: in vivo, female mice
Parameters: PK curves: unit not given here
Settings: for AUC0-t / AUC0-∞ / MRT0-t / MRT0-∞ / T1/2z: same

Substance: P-CM2-Cy3: Cy3-labeled P-CM2 (C(HPMA copolymer)YGGEVSALEKEVSALEKKNSALEKEVSALEKEVSALEK; also: Cy3 label on conjugate, position not given here)
- PK curves (Round 3, Time 0.041667 Day, replicate 1): 171.135
- PK curves (Round 3, Time 0.041667 Day, replicate 2): 180.496
- PK curves (Round 3, Time 0.041667 Day, replicate 3): 188.668
- PK curves (Round 3, Time 0.041667 Day, replicate 4): 205.584
- PK curves (Round 3, Time 0.041667 Day, replicate 5): 224.681
- PK curves (Round 3, Time 0.083333 Day, replicate 1): 156.708
- PK curves (Round 3, Time 0.083333 Day, replicate 2): 161.465
- PK curves (Round 3, Time 0.083333 Day, replicate 3): 162.063
- PK curves (Round 3, Time 0.083333 Day, replicate 4): 168.293
- PK curves (Round 3, Time 0.083333 Day, replicate 5): 190.32
- PK curves (Round 3, Time 0.166667 Day, replicate 1): 118.152
- PK curves (Round 3, Time 0.166667 Day, replicate 2): 137.258
- PK curves (Round 3, Time 0.166667 Day, replicate 3): 138.998
- PK curves (Round 3, Time 0.166667 Day, replicate 4): 139.637
- PK curves (Round 3, Time 0.166667 Day, replicate 5): 146.663
- PK curves (Round 3, Time 0.25 Day, replicate 1): 101.928
- PK curves (Round 3, Time 0.25 Day, replicate 2): 105.033
- PK curves (Round 3, Time 0.25 Day, replicate 3): 108.293
- PK curves (Round 3, Time 0.25 Day, replicate 4): 115.298
- PK curves (Round 3, Time 0.25 Day, replicate 5): 119.681
- PK curves (Round 3, Time 0.333333 Day, replicate 1): 71.2229
- PK curves (Round 3, Time 0.333333 Day, replicate 2): 72.9543
- PK curves (Round 3, Time 0.333333 Day, replicate 3): 93.0071
- PK curves (Round 3, Time 0.333333 Day, replicate 4): 101.069
- PK curves (Round 3, Time 0.333333 Day, replicate 5): 102.809
- PK curves (Round 3, Time 0.5 Day, replicate 1): 54.5332
- PK curves (Round 3, Time 0.5 Day, replicate 2): 55.1656
- PK curves (Round 3, Time 0.5 Day, replicate 3): 58.857
- PK curves (Round 3, Time 0.5 Day, replicate 4): 63.5997
- PK curves (Round 3, Time 0.5 Day, replicate 5): 67.2877
- PK curves (Round 3, Time 1 Day, replicate 1): 18.8846
- PK curves (Round 3, Time 1 Day, replicate 2): 19.9794
- PK curves (Round 3, Time 1 Day, replicate 3): 34.0857
- PK curves (Round 3, Time 1 Day, replicate 4): 37.3031
- PK curves (Round 3, Time 1 Day, replicate 5): 39.9731
- PK curves (Round 3, Time 2 Day, replicate 1): 13.6659
- PK curves (Round 3, Time 2 Day, replicate 2): 15.2182
- PK curves (Round 3, Time 2 Day, replicate 3): 16.959
- PK curves (Round 3, Time 2 Day, replicate 4): 18.4095
- PK curves (Round 3, Time 2 Day, replicate 5): 23.265
- PK curves (Round 3, Time 3 Day, replicate 1): 5.299
- PK curves (Round 3, Time 3 Day, replicate 2): 5.6755
- PK curves (Round 3, Time 3 Day, replicate 3): 6.127
- PK curves (Round 3, Time 3 Day, replicate 4): 11.4512
- PK curves (Round 3, Time 3 Day, replicate 5): 11.8082
- AUC0-t (Round 3): 2847.475 ± 463.394 ng·h/mL
- AUC0-∞ (Round 3): 3060.689 ± 565.511 ng·h/mL
- MRT0-t (Round 3): 17.779 ± 1.27 h
- MRT0-∞ (Round 3): 23.927 ± 3.854 h
- T1/2z (Round 3): 19.193 ± 3.042 h
- PK curves (Round 4, Time 0.041667 Day, replicate 1): 230.725
- PK curves (Round 4, Time 0.041667 Day, replicate 2): 194.218
- PK curves (Round 4, Time 0.041667 Day, replicate 3): 209.902
- PK curves (Round 4, Time 0.041667 Day, replicate 4): 229.24
- PK curves (Round 4, Time 0.041667 Day, replicate 5): 229.61
- PK curves (Round 4, Time 0.083333 Day, replicate 1): 173.583
- PK curves (Round 4, Time 0.083333 Day, replicate 2): 157.544
- PK curves (Round 4, Time 0.083333 Day, replicate 3): 163.249
- PK curves (Round 4, Time 0.083333 Day, replicate 4): 167.214
- PK curves (Round 4, Time 0.083333 Day, replicate 5): 205.861
- PK curves (Round 4, Time 0.166667 Day, replicate 1): 141.479
- PK curves (Round 4, Time 0.166667 Day, replicate 2): 127.721
- PK curves (Round 4, Time 0.166667 Day, replicate 3): 129.082
- PK curves (Round 4, Time 0.166667 Day, replicate 4): 138.936
- PK curves (Round 4, Time 0.166667 Day, replicate 5): 150.211
- PK curves (Round 4, Time 0.25 Day, replicate 1): 117.333
- PK curves (Round 4, Time 0.25 Day, replicate 2): 116.423
- PK curves (Round 4, Time 0.25 Day, replicate 3): 120.111
- PK curves (Round 4, Time 0.25 Day, replicate 4): 124.299
- PK curves (Round 4, Time 0.25 Day, replicate 5): 125.432
- PK curves (Round 4, Time 0.333333 Day, replicate 1): 69.1458
- PK curves (Round 4, Time 0.333333 Day, replicate 2): 73.8277
- PK curves (Round 4, Time 0.333333 Day, replicate 3): 84.2185
- PK curves (Round 4, Time 0.333333 Day, replicate 4): 100.254
- PK curves (Round 4, Time 0.333333 Day, replicate 5): 118.152
- PK curves (Round 4, Time 0.5 Day, replicate 1): 43.1042
- PK curves (Round 4, Time 0.5 Day, replicate 2): 47.0545
- PK curves (Round 4, Time 0.5 Day, replicate 3): 50.0192
- PK curves (Round 4, Time 0.5 Day, replicate 4): 54.418
- PK curves (Round 4, Time 0.5 Day, replicate 5): 70.7604
- PK curves (Round 4, Time 1 Day, replicate 1): 21.2271
- PK curves (Round 4, Time 1 Day, replicate 2): 23.1099
- PK curves (Round 4, Time 1 Day, replicate 3): 27.0861
- PK curves (Round 4, Time 1 Day, replicate 4): 30.0884
- PK curves (Round 4, Time 1 Day, replicate 5): 41.0104
- PK curves (Round 4, Time 2 Day, replicate 1): 4.911
- PK curves (Round 4, Time 2 Day, replicate 2): 16.8258
- PK curves (Round 4, Time 2 Day, replicate 3): 17.3047
- PK curves (Round 4, Time 2 Day, replicate 4): 21.1219
- PK curves (Round 4, Time 2 Day, replicate 5): 21.2086
- PK curves (Round 4, Time 3 Day, replicate 1): 3.457
- PK curves (Round 4, Time 3 Day, replicate 2): 6.287
- PK curves (Round 4, Time 3 Day, replicate 3): 7.344
- PK curves (Round 4, Time 3 Day, replicate 4): 8.892
- PK curves (Round 4, Time 3 Day, replicate 5): 12.3135
- AUC0-t (Round 4): 2805.642 ± 501.797 ng·h/mL
- AUC0-∞ (Round 4): 3022.978 ± 666.243 ng·h/mL
- MRT0-t (Round 4): 16.883 ± 2.739 h
- MRT0-∞ (Round 4): 22.801 ± 5.68 h
- T1/2z (Round 4): 18.712 ± 5.773 h
